{AF488} = Alexa Fluor 488 fluorescent label (Invitrogen)
Experiments:
endogenous EPSPS = test: EPSPS mRNA, EPSPS protein and shikimate in detached leaves after anti-sense ssDNA petiole uptake (Example 9); parameters: species or system Amaranthus palmeri; details: for increasing glyphosate efficacy, shikimate accumulation: 50 microgram/mL glyphosate; for suppressing levels of EPSPS mRNA and protein: 48 h incubation, #1 5 microM, #6 5 microM each (20 microM total), compared with other treatments
Protocol: Petioles of detached leaves of glyphosate-resistant Palmer amaranth were placed in 200 mM sucrose solution with oligonucleotides according to the treatments listed in Table 2. Control leaves were permeated with the anti-sense control (SEQ ID NO:14), and additionally treated with or without 50 micrograms/mL glyphosate. EPSPS mRNA, EPSPS protein, and shikimate levels were measured after 48 h incubation. To assess the effects of anti-sense ssDNA oligonucleotides on EPSPS mRNA, total leaf RNA was isolated and quantitative real-time RT-PCR was performed to compare EPSPS mRNA levels. To assess the effects of anti-sense ssDNA oligonucleotides on EPSPS protein, total leaf soluble protein was isolated, separated by SDS-PAGE, and EPSPS protein levels measured by Western blot using antibodies against maize EPSPS_TIPA. Effects of anti-sense ssDNA oligonucleotides on shikimate accumulation as an indication of suppression of EPSPS were assessed in two experiments: in experiment 1, the oligonucleotide-treated leaves were incubated with 50 microgram/mL glyphosate for an additional 48 h either by petiole uptake (control leaves were permeated with the anti-sense control (SEQ ID NO:14), and additionally treated with or without 50 micrograms/mL glyphosate); in experiment 2, leaf disc assays were performed on the oligonucleotide-treated leaves, and shikimate levels measured by HPLC (controls in this case were leaves that had not been treated with oligonucleotides but incubated with 50 microgram/mL glyphosate).

[1] = system: detached leaves of glyphosate-resistant Palmer amaranth; test: Petiole uptake of fluorescently labelled ssDNA oligonucleotide in detached leaves (Example 9); parameters: species or system Amaranthus palmeri
Protocol: Petioles of detached leaves of glyphosate-resistant Palmer amaranth were placed in 200 mM sucrose solution with fluorescently labelled ssDNA oligonucleotides (SEQ ID NO:15). Leaf images were taken by Bio-Rad PharosFX imager equipped with a 488 nm laser from 4 h up to 48 h after uptake through petiole. Leaves incubated with 200 mM sucrose alone served as control.

[2] = system: Nicotiana benthamiana phytoene desaturase; test: Single PDS ssDNA oligonucleotide treatment, systemic silencing in organs and seed set (Example 12); assay type: in vivo
Protocol: Four-week old tobacco (Nicotiana benthamiana) plants were used in all treatments. Two fully expanded leaves (one cotyledon, one true leaf) were conditioned by dipping into freshly made surfactant solution (0.1% Silwet L-77 in double-distilled water) for a few seconds and allowed to dry for 15-30 minutes. Twenty microliters of a single-stranded DNA (ssDNA) 22-mer oligonucleotide with the sequence […] (SEQ ID NO:39), corresponding to the nucleotides at positions 1099-1120 of Nicotiana benthamiana phytoene desaturase (SEQ ID NO:2) was applied as a 25 micromolar solution in 0.01% Silwet L-77 in 5 millimolar sodium phosphate buffer, pH 6.8 to the top surface of each conditioned leaf for a total of 40 microliters (1 nanomole oligonucleotide) per plant. Control plants were treated with the Silwet solution without the DNA oligonucleotide.
Flowers of both control and ssDNA-treated plants were allowed to set seed. Seeds were collected from mature fruits, weighed, and allowed to germinate. Seed weights were identical (about 11 mg per 100 seeds) and seed morphology appeared similar between the ssDNA-treated and the control plants.
In a separate assay using a similar procedure, tobacco plants were conditioned by dipping in 0.1% Silwet L-77 in double-distilled water, allowed to dry for 15-30 minutes, and treated with the PDS ssDNA 22-mer (SEQ ID NO:39) applied as a 25 micromolar solution in 0.01% Silwet L-77 in 5 millimolar sodium phosphate buffer, pH 6.8 to the top surface of each conditioned leaf for a total of 40 microliters (1 nanomole oligonucleotide) per plant. Other plants were not conditioned with a surfactant treatment, but were treated only with 1 nanomole of the PDS ssDNA 22-mer (SEQ ID NO:39) applied either by infiltration with a needleless syringe (shown in FIG. 18B) or by hand application of drops to the leaf surface (not shown in FIG. 18B), and either as a 25 micromolar solution in 0.01% Silwet L-77 in 5 millimolar sodium phosphate buffer, pH 6.8 or as a 25 micromolar solution in 5 millimolar sodium phosphate buffer, pH 6.8 (without surfactant). Negative control plants were treated with the Silwet buffer solution without the DNA oligonucleotide. Results are depicted in FIG. 18B.

[3] = system: mRNA encoding phytoene desaturase in tobacco (Nicotiana benthamiana); test: Topical PDS dsRNA on tobacco, bleaching (Example 4); assay type: in vivo; details: for plant outcome: 15 days after treatment with dsRNA; for phytoene desaturase silencing, leaf bleaching: day 9 after dsRNA treatment, about 0.6 micromoles of dsRNA per plant; for Northern blot analysis, siRNAs corresponding to the dsRNAs: in vivo
Description: This example illustrates the utility of the polynucleotide molecules of the invention as herbicidal agents. Two dsRNA polynucleotide molecules were designed to target overlapping segments of mRNA encoding phytoene desaturase in tobacco (Nicotiana benthamiana). With reference to SEQ ID NO:2 and FIG. 5, a dsRNA targeting a 192 nt length (shown in bold in FIG. 5) and a 685 nt length (shown in underline in FIG. 5) of the mRNA were made using an Ambion® MEGAscript® kit. Separate dsRNA solutions were prepared. Tobacco plant leaves were pretreated with surfactant solution prepared as in Example 1 and then treated with either one of the dsRNA solutions applying about […] of dsRNA per plant.

[4] = system: Palmer amaranth phytoene desaturase (PDS); test: Sequence specificity of PDS dsRNA on Palmer amaranth, bleaching (Example 11); assay type: in vivo; details: 0.6 micromolar polynucleotide, 40 microliters per plant; observed 3 days post treatment
Protocol: Palmer amaranth plants having 16 copies of EPSPS and 5-8 inches high were treated with 0.1% Silwet L-77 solution freshly made with ddH2O. Four fully expanded leaves per plant were dipped into the Silwet L-77 solution for a few seconds, and allowed to dry for 30 minutes to 1 hour before application of the polynucleotide composition. Individual polynucleotide solutions were made for each of the 678 by Palmer PDS dsRNA, 198 by Palmer PDS dsRNA, the 685 by Nicotiana benthamiana PDS dsRNA, and the 192 by Nicotiana benthamiana PDS dsRNA (0.6 micromolar polynucleotide in 0.01% Silwet L-77, 5 mM sodium phosphate buffer, pH 6.8). 10 microliters of polynucleotide solution (or buffer as a control) was applied to the top surface of each of the four pre-treated leaves per plant to provide a total of 40 microliters for each plant. Plants were kept in a growth chamber, and leaf bleaching was observed 3 days post treatment.

[5] = system: endogenous PDS, EPSPS, or RuBisCO genes from Nicotiana benthamiana; test: PDS, EPSPS, RuBisCO anti-sense polynucleotides on Nicotiana benthamiana, plant height (Example 33); assay type: in vivo; details: PDS 25 nanomoles, EPSPS and RuBisCO 50 nanomoles of each per plant
Protocol: Nicotiana benthamiana plants were treated using a procedure similar to that described in Example 12. Polynucleotide solution (or mixed polynucleotides in the case of EPSPS and RuBisCO) were prepared in 0.01% (v/v) Silwet L-77 and 2% (w/v) ammonium sulfate in 5 millimolar sodium phosphate, pH 6.8. Two fully expanded leaves per plant were dipped into 0.1% Silwet L-77 solution freshly made with ddH2O for a few seconds, and allowed to dry. About 30 minutes later, 20 microliters of polynucleotide solution, was applied to each of the two pre-treated leaves. For PDS, each of 5 plants received 25 nanomoles of the PDS anti-sense polynucleotide (SEQ ID NO:34); for EPSPS, each of 5 plants received 50 nanomoles of each EPSPS anti-sense polynucleotide (SEQ ID NOS:279-284); and for RuBisCO, each of 5 plants received 50 nanomoles of each RuBisCO anti-sense polynucleotide (SEQ ID NOS:288-295). Paired control plants were treated with buffer (0.01% (v/v) Silwet L-77 and 2% (w/v) ammonium sulfate in 5 millimolar sodium phosphate, pH 6.8).

Molecule: Anti-sense_PO1: SEQ ID NO:8, ssDNA anti-sense to Amaranthus palmeri EPSPS (antisense ACCCTCCACGACTGCCCTTT; listed as DNA, chemistry not fully specified; listed as Amaranthus palmeri)
- increasing glyphosate efficacy, shikimate accumulation (endogenous EPSPS): increased accumulation of shikimate
- suppressing levels of EPSPS mRNA and protein (endogenous EPSPS): more efficacious

Molecule: Anti-sense_PO1_488: SEQ ID NO:15, 5′-labelled with Alexa Fluor 488 (antisense ACCCTCCACGACTGCCCTTT; DNA, 5' {AF488}, backbone not given here; listed as Amaranthus palmeri)
- distribution in leaf ([1]; at 24 h and 48 h): accumulate at the leaf edge
- vascular uptake into leaf ([1]; petiole in 200 mM sucrose, imaged 4 h up to 48 h): slightly time-dependent vascular uptake
- release from vascular tissue into cells, as early as (time after treatment) ([1]; petiole uptake): 8 h

Molecule: PDS ssDNA 22-mer: SEQ ID NO:39, GGCAGTACAATTAAAGGAGATG, positions 1099-1120 of SEQ ID NO:2 (DNA, backbone not given here; listed as Nicotiana benthamiana)
- amount of seed produced per fruit ([2]; compared to control plants): reduced amount of seed produced per fruit
- bleaching of apical leaves, stems, and flowers ([2]; leaves conditioned with 0.1% Silwet L-77, 1 nanomole per plant): all displayed bleaching
- germination rate ([2]; seeds from treated plants, control 95 out of 100): 4 out of 100
- seed weight ([2]; seeds from treated plants, identical to control): about 11 mg per 100 seeds
- bleaching of apical leaves, stems, and flowers ([2]; without conditioning by Silwet L-77, 1 nanomole by infiltration or hand application of drops): displayed bleaching of apical leaves, stems, and flowers

B1: dsRNA targeting a 192 nt length: dsRNA to Nicotiana benthamiana PDS, positions 914-1105 of SEQ ID NO:38 (nucleic acid, listed as Nicotiana benthamiana)
DNA: ACAGATTTCTTCAGGAGAAACATGGTTCAAAAATGGCCTTTTTAGATGGTAACCCTCCTGAGAGACTTTGCATGCCGATTGTGGAACATATTGAGTCAAAAGGTGGCCAAGTCAGACTAAACTCACGAATAAAAAAGATCGAGCTGAATGAGGATGGAAGTGTCAAATGTTTTATACTGAATAATGGCAGTA
modifications: dsRNA of this region
- plant outcome [3]: one half of the treated plants appeared to be dead and the other half of the plants had most of the above ground tissues bleached
- phytoene desaturase silencing, leaf bleaching [3]: visible leaf bleaching on apical leaves
- Northern blot analysis, siRNAs corresponding to the dsRNAs [3]: presence of siRNAs
- bleaching of leaves [4]: did not show bleaching of leaves

B2: EPSPS anti-sense polynucleotides: SEQ ID NOS:279-284, anti-sense to Nicotiana benthamiana EPSPS (nucleic acid)
antisense 1: CTGTGATCATCATATGTATCA
antisense 2: CCTTAACTCTCCAGCTAGCAA
antisense 3: CAGCCCGCAAATGTTTCATTC
antisense 4: GCCGTCAATGGCCGCATTGCT
antisense 5: TCCTTCCCTCAGAAAGGGCAG
antisense 6: TTGCCTCATGCTGCTAATCTG
modifications: listed as DNA, chemistry not given here
- plant height (FIG. 36) ([5]; 12 days (PDS and EPSPS) or 10 days (RuBisCO) after treatment): severe stunting
- other phenotype [5]: severe damage to the meristem and stem tissues

B3: #6: Anti-sense_PO1, PO2, PO3, PO4 (SEQ ID NOs: 8, 9, 10, 11) (nucleic acid, listed as Amaranthus palmeri)
antisense 1: ACCCTCCACGACTGCCCTTT
antisense 2: GTTTCCTTCACTCTCCAGC
antisense 3: GTAGCTTGAGCCATTATTGT
antisense 4: GTTGATGGTAGTAGCTTGAG
modifications: DNA, backbone not given here
- increasing glyphosate efficacy, shikimate accumulation (endogenous EPSPS): increased accumulation of shikimate
- suppressing levels of EPSPS mRNA and protein (endogenous EPSPS): more efficacious

B4: dsRNA targeting a 685 nt length: dsRNA to Nicotiana benthamiana PDS, positions 421-1105 of SEQ ID NO:38 (nucleic acid, listed as Nicotiana benthamiana)
DNA: GCAAGAGATGTCCTAGGTGGGAAGGTAGCTGCATGGAAAGATGATGATGGAGATTGGTACGAGACTGGGTTGCACATATTCTTTGGGGCTTACCCAAATATGCAGAACCTGTTTGGAGAACTAGGGATTGATGATCGGTTGCAGTGGAAGGAACATTCAATGATATTTGCGATGCCTAACAAGCCAGGGGAGTTCAGCCGCTTTGATTTTCCTGAAGCTCTTCCTGCGCCATTAAATGGAATTTTGGCCATACTAAAGAACAACGAAATGCTTACGTGGCCCGAGAAAGTCAAATTTGCTATTGGACTCTTGCCAGCAATGCTTGGAGGGCAATCTTATGTTGAAGCTCAAGACGGTTTAAGTGTTAAGGACTGGATGAGAAAGCAAGGTGTGCCTGATAGGGTGACAGATGAGGTGTTCATTGCCATGTCAAAGGCACTTAACTTCATAAACCCTGACGAGCTTTCGATGCAGTGCATTTTGATTGCTTTGAACAGATTTCTTCAGGAGAAACATGGTTCAAAAATGGCCTTTTTAGATGGTAACCCTCCTGAGAGACTTTGCATGCCGATTGTGGAACATATTGAGTCAAAAGGTGGCCAAGTCAGACTAAACTCACGAATAAAAAAGATCGAGCTGAATGAGGATGGAAGTGTCAAATGTTTTATACTGAATAATGGCAGTA
modifications: dsRNA of this region
- plant outcome [3]: one half of the treated plants appeared to be dead and the other half of the plants had most of the above ground tissues bleached
- phytoene desaturase silencing, leaf bleaching [3]: visible leaf bleaching on apical leaves
- Northern blot analysis, siRNAs corresponding to the dsRNAs [3]: presence of siRNAs
- bleaching of leaves [4]: did not show bleaching of leaves

Source: US20130047297A1, “POLYNUCLEOTIDE MOLECULES FOR GENE REGULATION IN PLANTS” (priority 2010, published 2013)
